Experimental data reported in PMC2173288 (The Journal of Cell Biology, 2002).

Assays:
Glo3p = Glo3p (UniProt P38682 1-493); assay: pull-down
Sar1p = Sar1p (UniProt P20606 1-190); assay: pull-down
Chain of Sar1p (P20606 whole entry): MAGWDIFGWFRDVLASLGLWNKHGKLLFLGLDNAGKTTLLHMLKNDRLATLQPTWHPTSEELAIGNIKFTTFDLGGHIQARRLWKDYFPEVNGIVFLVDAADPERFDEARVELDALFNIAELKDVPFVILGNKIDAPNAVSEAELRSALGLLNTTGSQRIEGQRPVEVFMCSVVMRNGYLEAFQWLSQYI

Chain of Glo3p (P38682 whole entry): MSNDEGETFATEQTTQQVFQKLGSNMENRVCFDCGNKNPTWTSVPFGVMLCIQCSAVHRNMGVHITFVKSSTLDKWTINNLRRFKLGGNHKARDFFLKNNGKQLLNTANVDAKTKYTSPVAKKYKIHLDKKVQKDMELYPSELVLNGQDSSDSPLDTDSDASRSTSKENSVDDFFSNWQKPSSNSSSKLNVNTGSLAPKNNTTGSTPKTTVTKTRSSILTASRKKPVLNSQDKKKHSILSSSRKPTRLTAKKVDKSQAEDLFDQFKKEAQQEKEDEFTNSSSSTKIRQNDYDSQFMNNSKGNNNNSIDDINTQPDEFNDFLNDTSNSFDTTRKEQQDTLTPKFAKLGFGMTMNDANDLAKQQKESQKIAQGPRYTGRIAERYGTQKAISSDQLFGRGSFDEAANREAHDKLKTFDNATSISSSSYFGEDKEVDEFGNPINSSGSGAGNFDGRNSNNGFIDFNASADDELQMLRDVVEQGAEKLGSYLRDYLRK

| binding result (Glo3p) | binding result (Sar1p) | Binder |
| --- | --- | --- |
| binds |  | Bet1p-(41–119) (domain or fragment) TDKLDYSQSTLASLESQSEEQMGAMGQRIKALKSLSLKMGDEIRGSNQTIDQLGDTFHNTSVKLKRTFGNMMEMARRSG |
|  | binds | Bet1p-GST (domain or fragment) MSSRFAGGNAYQRDTGRTQLFGPADGSNSLDDNVSSALGSTDKLDYSQSTLASLESQSEEQMGAMGQRIKALKSLSLKMGDEIRGSNQTIDQLGDTFHNTSVKLKRTFGNMMEMARRSG |
